From the supplement of paper PMC9170038

Key:
MS2 coat protein [1] = test: apparent KD of MS2 coat protein; designed switch direction (-1 OFF switch, 1 ON switch): -1; higher = weaker reporter binding; settings: Eterna round: R98
Method: (§1)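 RNA-MaP: designed FMN/MS2 RNA switches (84 nt design region) are transcribed on-chip within common flanks and titrated with SNAP-549-labelled MS2 coat protein (about 1-3000 nM) in 100 mM Tris pH 7.5, 80 mM KCl, 4 mM MgCl2, without or with 200 uM FMN. Median apparent KD per design; activation ratio = KD,OFF / KD,ON.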

MS2 coat protein [2] = test: apparent KD of MS2 coat protein; higher = weaker reporter binding; settings: Eterna round: R101
Method: as §1

Sequence	apparent KD of MS2 coat protein (MS2 coat protein [1]; input ligand: FMN 200 uM) [nM]	apparent KD of MS2 coat protein (MS2 coat protein [1]; input ligand: none) [nM]	apparent KD of MS2 coat protein (MS2 coat protein [2]; input ligand: FMN 200 uM) [nM]	apparent KD of MS2 coat protein (MS2 coat protein [2]; input ligand: none) [nM]
CCAUAAAAGAUCCAAAAUUACAACAUGAGGAUCACCCAUGUGCAGGAUAUCGUGAAAGUAAAAUACGAGAAGGGCAAGAACUGC [salish99_ExNG3_r2_004]	425	430		
CCUGCACUUCAAGGAUAUCCAGUCGAAACGACUGGAGAAGGUGAGGAUCACCCAUCUAGCCUGACGAAAGUCAGGCAUGCAGGA [#SharedSequence - ExNG1-7] (puzzle (switch architecture): Exclusion NG 1)			101	90.4
CCUGCACUUCAAGGAUAUCCAGUCGUUUCGACUGGAGAAGGUGAGGAUCACCCACCUAGCCUGACGUUUGUCAGGCAUGCAGGU [#AddUracilToBrourdLoops 3 - Jieux - Exclusion NG1] (puzzle (switch architecture): Exclusion NG 1)			8.78	8.76
GGUCGACCUCAAGGAUAUGGACUGCUUUGCAGUCCAGAAGGUGAGGAUCACCCACCUACGGUCAGGUUUCUGACCGAUCGACCU [#AddUracilToBrourdLoops 2 - Jieux - Exclusion NG1] (puzzle (switch architecture): Exclusion NG 1)			79.2	14.2
GGUCGACCUCAAGGAUAUGGACUGCUUUGCAGUCCAGAAGGUGAGGAUCACCCAUCUACGGUCAGGUUUCUGACCGAUCGACCU [#AddUracilToBrourdLoops 6 - Jieux - Exclusion NG1] (puzzle (switch architecture): Exclusion NG 1)			260	282
GUAGCAUUCUGAGGAUAUUCAUACCGGAAACGGACAUGAGGAUCACCCAUGUGGCGAAAGCCUUGGGAGAAGGCAGUAUGCUAC [#DoubleMagnetSystem - Xeonanis 25 9 - Original] (puzzle (switch architecture): Same State NG 2)			9.21	247
UAAAUAAAUCCUAGAGGAUCACCCUAGGAUAUGAGGCUGCACCUCGGAUAAUCCGAGGUGCAGCCUCAGAAGGAGGGUAAUAAA [#SharedSequence - SLExNG3: 1-2] (puzzle (switch architecture): Small Loop Exclusion NG 3)			43.1	14.4
UAGAAGCUCACAGGAUAUCAGUAUGCGCGAUCUAACGCAUUAAUGAACUGCUGAGAAGGGUGAGACAUGAGGAUCACCCAUGUA [Enesraadi] (puzzle (switch architecture): Small Loop Same State NG 1)			395	236
UCAUAAUAGAUCCUAUUUAUCUACAUGAGGAUCACCCAUGUGCAGGAUAUGCUAAAAUUAAAAUAGCAGAAGGGCAAUUUCAGC [JR_ExcNG3_Sub013]	359	94.3		
UGGUAUAAGGGCAUUACACAUGAGGAUCACCCAUGUACGUUAGAGGAUAUGCAUUCCAGUCGAACGUAGAAGGUUAGAGAAGGG [Morebubblesahh#8abcdefghij]	150	113		
UUCUGUGCCCAAAGUUUAAGCACAUGAGGAUCACCCAUGUGAAAGGAUAUGUGGCAUGUAAUGUUAUAGAAGGUUCACAAUCAA [Esadi]	23.9	15.8		
